# Results reported in the nanobody polyreactivity screen of Harvey et al. (2022).
# Experiment: yeast display, Sf9 membrane polyspecificity reagent, FACS + sequencing; frameworks hold sequencing errors
# Procedure, shortened: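 Galactose-induced (36–48 hours) yeast carrying a synthetic nanobody display library were exposed to 10% biotinylated, detergent-solubilized Sf9 membrane reagent at 4 °C for 1 hour. FACS followed streptavidin microbead enrichment, using low and high (top ~1%) gates for expression (anti-HA) and reagent binding (streptavidin). Colony PCR, MiSeq 2 × 250 sequencing and CDR-length filtering followed. Labels for polyreactivity reflect the gate of origin.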
row,Sequence,polyreactivity (PSR sort gate)
1,QVQLVESGGGLVQAGGSLRLRCAASGSTFKFYAMGWYRQAPGKEREFVAAITGSGGSTYYADSVKGRFTISRDNAKNTVYLQMNSLKPEDTAVYYCNTTPVLQLYYWGQGTQVTVSS,low polyreactivity
2,QVQLVESGGGLVQAGGSLRLSCAASGSIFKYYAMGWYRQARGKERELVAVITSGGSTYYADSVKGLFTISRDNAKNTVYLQMNSLKPEDTAVYYCAAGVRAYNWGEYDYWGQGTQVTVSS,low polyreactivity
3,QEQRVESGGGFVQAGGSLRLSCAASGFICVDYAMRWYRHARGNEREWVAAITYDGGSTYFADSVKARFTISRDNAKNTVNSQMNSLNPEDTALYYWAADYGYSQYILRQVRLEELDYSGQGTQVTVSS,low polyreactivity
4,QVQLVESGGGLVQAGGSLRLSCAASGRIFYNYAMRWYRQAPGKERELVAAISGSGGSTYYADSVKGRFTISRDNAKNTVYLQMNSLKPEDTAVYYCSTSGPQYYSRNFDYWGQGTQVTVSS,low polyreactivity
5,QVQLVESGGGLVQAGGSLRLSCAASGSIFVHYAMGWSRQAPGKERELVAAITTSGGSTYYADSVKGRFTISRDNAKNTVYLQMNSLKPEDTAVYYCNARAVRYPFTGNYWAQGTQVTVSS,high polyreactivity
6,QVQLVESGGGLVQAGGSLRLSCAASGSIFDLYAMGWYRQAPGKERELVASIRYSGGRTYYADSVKGRFTISRDNAKNTVYLQMNSLKPEDTAVYYCNRDGGYTFIMDYWGQGTQVTVSS,low polyreactivity
7,QVHLEESGAGLVQAGGSLRISCAASGFIFDYYAMGWYRQAPGKERELVATITSRGGSTYYADSVKGRFTISRDNAKNTVSLQMNRLKPDYNGVYYCAAVSHPGRKYYYWGQGTQVTVSS,high polyreactivity
8,QVQLVESGGGLVQAGGSLRLSCAASGRTFRSYAMGWYRQAPGKEREFVAAISRSGASTRYADSVKGRFTISRDNAKNTVYLQMNSLKPEDTAVYYCAKSWRYSINQSYRAGYNYWGQGTQVTVSS,high polyreactivity
9,QVQLVESGGGLVQAGGSLRLSCAASGFTIDAYAMGWYRQAPGKERELVAAISDGGNTYYADSVKGRFTISRDNAKNTVYLQMNSLKPEDTAVYYCNVDWYSYWYYTYEKSSEWAMEYWGQGTQVTVSS,low polyreactivity
10,QVQLVESGGGLVQAGGSLRLSCAASGLIFLRNSMGLDRTAPGKERELVAAISRSGGSTYYADSVKGRFTISRDSAKYSGYLQMNSLKPVDTAVYYCAKYGYGGVIPGPDHFDYWVQGTQVTVSS,high polyreactivity
11,QLQLVESGGGLDQAGVSLRLSCAASGFIFRNYAIGSYRQAPGNESELVAAITRSGTSTYYADSVKGRFSISRDNAKNTVYLQMNSLKPEDTAVYYCNTRYWLYYHRFDYWGQGTQVTVSS,high polyreactivity
12,QFQLVESGGGLVQAGVSLRLSCAASGRIFSHYAMGWYRQAPGKERELVAASSSGGITYYADSVKGRFTISLDNAKNTVYLQMNCQKPEDTAVYYCAAVRRRGTTYDYWGQGTQVTVSS,high polyreactivity
13,QVQLVESGGGLVQAGGSLRLSCAASGRIFRSNAMGWYRQAPGKERELVAVINSDDSTYYADSVKGRFTISRDNAKNTVYLQMNSLKPEDTAVYYCAAEPQYTRHMDSLGQGTQVTVSS,low polyreactivity
14,QVQLVESGGGLVQAGGSLRLSCAASGSIFSYNVMGWYRQAPGKERELVAAISYGGGSTYYADSVKGRFTISRDTAKNTVYLQMNSLKPEDTAVYYCAARKWYTYYPYDYWGQGTQVTVSS,high polyreactivity
15,QVQLVESGGGLVQARCSLRLSCAASGSTFLRYAMGWYRQAPGKERELVATISSSDDGTYYADSVKGRFTISRDIAKNTVYLQMNSLKPEDTAVYYCAARSWYLYYYWGQGTQVTVSS,low polyreactivity
16,QVQLVESGGGLVQAGGSLRLSCAASGGTFRGYAMGWYRQAPGKERELVAAITYSGGRTYYADSVKGRFTISRDNAKNTVYLQMNSLKPEDTAVYYCNAQSSGRLSYRYDYWGQGTQVTVSS,high polyreactivity
